In patent US8507431B2, “Methods for accelerating wound healing by administration of a preadipocyte modulator or an adipocyte modulator” (HealOr Ltd., priority 2003, dated 2013):

Columns and labels:
[1] = test system: Full thickness wounds on the back of C57BL mice; assay: Wound healing assay, full thickness incision wounds in mice; type: in vivo
Procedure: […] […] Wound biopsies were sampled, processed and analyzed morphologically and/or histochemically and/or immunohistochemically for various wound healing parameters, i.e., wound contraction, adipocytes migration and differentiation, epidermal migration, and epidermal closure.
The wound area was measured and compared to untreated control wounds; and wound contraction was calculated as the percent reduction of the wound area.
Wound biopsies were fixed in 4% paraformaldehyde then dehydrated in increasing concentrations of ethanol (50-100%). The dehydrated preparations were immersed first in xylene, then paraffin and xylene 1:1 solution, then in pure melted paraffin (60° C.). The paraffin blocks were then sectioned by a microtome and the sections were mounted on Super Frost^+™ slides.
Paraffin embedded wound-section slides were incubated at 60° C. for 60 minutes and were de-parafinated by washing the slides twice with toluene (100%) for 10 minutes, then rehydrated in decreasing concentration of ethanol (100-50%) for 5 minutes each. The slides were stained with hematoxylin (ready to use solution) for 10 minutes, rinsed with water, stained with eosin (0.5% in DDW) for 5 minutes, and then washed with 70% ethanol by 2 quick immersions. Thereafter, the slides were dehydrated by washing once with 95% ethanol for 2 minutes, twice with 100% ethanol for 5 minutes, and twice with xylene (100%) for 10 minutes, then mounted with entellan (MERCK Darmstadt Germany).
Paraffin embedded wound-section slides were de-parafinated as described for H&E staining above and incubated in blocking solution (5% BSA and 0.5% Tween 20™ in PBS) for 1 hour. […]
The effect of inhibiting or enhancing the activity of PPARγ using PPARγ antogonist and agonist, respectively, on wound healing was also evaluated in vivo. […]
The effect of adipsin (complementing Factor D, which is secreted from adipocytes) on wound healing was evaluated in vivo. […] The mice were sacrificed 6 days after wounding and the wounds were then analyzed. […]

primary skin fibroblasts = assay: Fibroblasts scratch migration assay in vitro; type: cell-based; details: 24 hrs; for fibroblasts migration to close the wound gap vs non-treated and insulin: hIL-8 5 ng/ml, hIL-1β 0.2 ng/ml, hIL-4 2 ng/ml, apelin 0.2 μg/ml, adiponectin 1 μg/ml
Procedure: Primary skin fibroblasts were isolated and plated on 5 ml non-coated dishes until confluence in low Ca^2+ medium, and an artificial crossover scratch was formed in each dish with a 200 μm tip. Cells were either non-treated (control) or treated with insulin (0.1 unit/ml), hIL-8 (5 ng/ml), hIL-1β (0.2 ng/ml), hIL-4 (2 ng/ml), apelin (0.2 μg/ml) or adiponectin (1 μg/ml); and collected after 24 hrs.
Primary keratinocytes/fibroblasts were isolated and plated on 5 ml non-coated dishes until confluence in low Ca^2+ medium, and an artificial cross-over scratch was formed in each dish with a 200 μm tip. Then, cells were either non-treated or treated with visfatin (0.1 μg/ml or 0.0.1 μg/ml) or insulin (0.1 unit/ml) for up to 48 hrs.

primary keratinocytes [2] = assay: Keratinocytes migration (wound scratch) assay in vitro; type: cell-based, murine
Procedure: (§1) Primary keratinocytes were isolated from newborn skin as described in reference 18. Keratinocytes were cultured in Eagle's Minimal Essential Medium (EMEM) containing 8% Chelex (Chelex-100, BioRad) treated fetal bovine serum. To maintain a proliferative basal cell phenotype, the final Ca^2+ concentration was adjusted to 0.05 mM. Experiments were performed five to seven days after plating.
Primary mouse keratinocytes were untreated or treated with, PPARγ antagonist GW9662 (μM) or PPARγ agonist troglitazone (μM). Wound Scratch Assay was performed 24 hours following treatment, and representative fields were photographed immediately after the wounding (Day 0) and 48 hours later (Day 2). The average of wound closure represented as percentage in comparison to the initial width of the wound scratch (% of wound closure).
The effect of inhibiting or enhancing the activity of peroxisome proliferators-activated receptor gamma (PPARγ) on keratinocytes migration was evaluated utilizing the in vitro migration assay. Thus, primary keratinocytes were isolated and plated on 5 ml non-coated dishes until confluence in low Ca^2+ medium, and an artificial crossover scratch was formed in each dish with a 200 μm tip. Cells were either non-treated (control) or treated daily with PPARγ modulators.
In order to test the effect of different adipokines on keratinocyte migration to close the wound gap, an in vitro scratch assay was used. Thus, primary keratinocytes were isolated and plated on 5 ml non-coated dishes until confluence in low Ca^2+ medium, and an artificial crossover scratch was formed in each dish with a 200 μm tip. Cells were either non-treated (control) or treated daily with insulin (0.1 unit/ml), hIL-4 (2 ng/ml), hIL-6 (0.2 ng/ml), leptin (4 μg/ml) or apelin (0.02 μg/ml or 0.2 μg/ml).
Primary keratinocytes/fibroblasts were isolated and plated on 5 ml non-coated dishes until confluence in low Ca^2+ medium, and an artificial cross-over scratch was formed in each dish with a 200 μm tip. […]

primary keratinocytes [3] = assay: Western blot analysis for PCNA expression (proliferation marker); type: cell-based, murine; details: visfatin 0.01 μg/ml, 24 hrs post treatment
Procedure: as §1
(§2) Primary keratinocytes were isolated, plated on 100 mm tissue dishes and maintained for 5 days in medium with low Ca^+ (0.05 mM) until 80% confluence. Then, cells were either non-treated (control) or treated with insulin (0.1 unit/ml, 1 μM) or visfatin (0.01 μg/ml or 0.1 μg/ml). 24 hrs post treatment cells were lyzed and analyzed for PCNA expression by western blot analysis.

primary keratinocytes [4] = assay: Thymidine incorporation assay; type: cell-based, murine
Procedure: as §1
Primary keratinocytes were isolated, plated on 6 well tissue dishes and maintained for 5 days in medium with low Ca^2+ (0.05 mM) until 80% confluence. Then, cells were either non-treated (control) or treated with visfatin (0.1 μg/ml or 0.01 μg/ml) for 24 hrs. 6 hrs post treatment Ca^2+ mM was added to the medium, and the next day, cells were pulsed with [^3H]thymidine (1 uCi/ml) for 1 hour. After incubation, cells were washed three times with PBS and 5% trichloroacetic acid (TCA) was added into each well for 1 hour. The solution was then removed and cells were stabilized in 1M NaOH. The labeled thymidine incorporated into the cells was counted in a ^3H-window of a Tricarb liquid scintillation counter.

primary keratinocytes [5] = assay: Differentiation assay for Keratin 1 (western blot); type: cell-based, murine; details: visfatin 0.01 or 0.1 μg/ml, 24 hrs; vs non treated and insulin treated cells
Procedure: as §1
as §2, with “low Ca^2+” for “low Ca^+”, “were lysed” for “were lyzed”, “for K1 (Keartin 1)” for “for PCNA”

primary keratinocytes [6] = assay: Differentiation assay for filaggrin (western blot); type: cell-based, murine; details: visfatin 0.01 and 0.1 μg/ml, 24 hrs
Procedure: as §1
Primary keratinocytes were isolated, plated on 100 mm tissue dishes and maintained for 5 days in medium with low Ca^2+ (0.05 mM) until reaching 80% confluence. Then, cells were either non-treated (control) or treated with visfatin (0.01 μg/ml or 0.1 μg/ml). Terminal differentiation was induced by adding Ca^2+ to the medium 6 hrs post treatment. 24 hrs post treatment cells were lysed and analyzed for filaggrin expression by western blot analysis.

[7] = visfatin 0.01 μg/ml daily for 7 days

| Molecule | healing parameters (epidermal closure, dermal contraction, matrix remodeling) ([1]; adiponectin 1 μg/ml daily for 7 days, 20 mm incision, H&E and Masson Trichrome) | fibroblasts migration to close the wound gap vs non-treated and insulin (primary skin fibroblasts) | keratinocyte migration in scratch assay vs control and insulin (primary keratinocytes [2]; treated daily, 24 and 48 hrs, hIL-4 2 ng/ml, apelin 0.2 μg/ml) | adipocytes at the wound site [1, 7] | inflammation in the wound [1, 7] | migration of keratinocytes relative to controls (primary keratinocytes [2]; visfatin 0.1 μg/ml or 0.01 μg/ml, up to 48 hrs) | migration of keratinocytes (primary keratinocytes [2]; visfatin 0.1 μg/ml, 48 hrs) | fibroblast migration and proliferation (primary skin fibroblasts; visfatin 0.01 μg/ml, insulin 0.1 unit/ml as comparison) | PCNA expression levels in keratinocytes (primary keratinocytes [3]) | proliferation rate under conditions promoting cell differentiation (primary keratinocytes [4]; Ca2+ 0.12 mM addition to the medium, visfatin 0.1 or 0.01 μg/ml) | thymidine incorporation (proliferation) (primary keratinocytes [4]; visfatin 0.01 μg/ml vs 0.1 μg/ml and controls, 24 hrs) | keratinocyte differentiation (Keratin 1 expression) (primary keratinocytes [5]) | filaggrin levels (terminal differentiation) (primary keratinocytes [6]) |
| --- | --- | --- | --- | --- | --- | --- | --- | --- | --- | --- | --- | --- | --- |
| adiponectin (protein, UniProt Q15848 19-244, looked up, adipokine) Adiponectin: ETTTQGPGVLLPLPKGACTGWMAGIPGHPGHNGAPGRDGRDGTPGEKGEKGDPGLIGPKGDIGETGVPGAEGPRGFPGIQGRKGEPGEGAYVYRSAFSVGLETYVTIPNMPIRFTKIFYNQQNHYDGSTGKFHCNIPGLYYFAYHITVYMKDVKVSLFKKDKAMLFTYDQYQENNVDQASGSVLLHLEVGDQVWLQVYGEGERNGLYADNDNDSTFTGFLLYHDTN | better healing parameters | promoted fibroblasts migration to completely close the wound gap | – | – | – | – | – | – | – | – | – | – | – |
| IL-4: adipokine hIL-4 (protein, UniProt P05112 25-153, looked up) Interleukin-4: HKCDITLQEIIKTLNSLTEQKTLCTELTVTDIFAASKNTTEKETFCRAATVLRQFYSHHEKDTRCLGATAQQFHRHKQLIRFLKRLDRNLWGLAGLNSCPVKEANQSTLENFLERLKTIMREKYSKCSS | – | did not induce any additional effect compared to controls | keratinocyte migration was highly significant | – | – | – | – | – | – | – | – | – | – |
| visfatin (protein, UniProt P43490 1-491, looked up, insulin-mimetic hormone secreted from visceral adipose tissue) Nicotinamide …: MNPAAEAEFNILLATDSYKVTHYKQYPPNTSKVYSYFECREKKTENSKLRKVKYEETVFYGLQYILNKYLKGKVVTKEKIQEAKDVYKEHFQDDVFNEKGWNYILEKYDGHLPIEIKAVPEGFVIPRGNVLFTVENTDPECYWLTNWIETILVQSWYPITVATNSREQKKILAKYLLETSGNLDGLEYKLHDFGYRGVSSQETAGIGASAHLVNFKGTDTVAGLALIKKYYGTKDPVPGYSVPAAEHSTITAWGKDHEKDAFEHIVTQFSSVPVSVVSDSYDIYNACEKIWGEDLRHLIVSRSTQAPLIIRPDSGNPLDTVLKVLEILGKKFPVTENSKGYKLLPPYLRVIQGDGVDINTLQEIVEGMKQKMWSIENIAFGSGGGLLQKLTRDLLNCSFKCSYVVTNGLGINVFKDPVADPNKRSKKGRLSLHRTPAGNFVTLEEGKGDLEEYGQDLLHTVFKNGKVTKSYSFDEIRKNAQLNIELEAAHH | – | – | – | attracts adipocytes to the wound site | reduces inflammation | does not halt or interfere with migration of keratinocytes | induced migration in keratinocytes though not significantly | promotes fibroblast migration and proliferation to the extent of insulin treatment | significantly decreased | inhibited even further | lower thymidine incorporation than the higher dose (0.1 μg/ml) and controls | promotes keratinocyte differentiation primarily terminal differentiation | marked elevation in filaggrin levels |
